Reference: the supplement of paper PMC10126150
± gives the standard deviation of the averaged measurements.

Tested on: ATP
Assay: switch fluorescence ratio, 500 uM ATP over buffer (Cy3 cluster intensity, sum of 5 cycles each) (fold (ratio)); higher = stronger signal-on switching upon ATP binding; sequences stand for … in TCGTCGGCAGCGTCAGATGTGTATAAGAGACAGTTTTTTTTTTTTTTTTTTTTTTTTT…TC
Details: aptamer strand: ATP DNA aptamer (quencher-CACCTGGGGGAGTATTGCGGAGGAAGG + anchor), 100 nM annealed; ATP concentration: 500 uM
In short: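 The quencher-labelled ATP aptamer, at 100 nM, was annealed to Cy3-labelled switching-strand clusters on a modified Illumina MiSeq flow-cell. The clusters were imaged in selection buffer, then after 15 min with 500 uM ATP at 22 °C, and this buffer/ATP cycle ran five times with NaOH stripping and re-annealing between runs. Per-cluster fluorescence ratios, summed target-cycle over summed buffer-cycle Cy3 intensity, were averaged per switch-domain sequence. Clusters outside 100-1000 RFU were excluded.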
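Further: ATP exposure 15 min at 22 °C before imaging.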

Sequence	switch fluorescence ratio
CCACACCATT	1.058 ± 0.004
TCGTGTTACT	1.005 ± 0.008
CTCTCTTTGA	0.963 ± 0.015
ATTGAGCTGT	0.9812 ± 0.0062
GATGAGCCTA	1.01 ± 0.073
AGTAGTAAAC	1.02 ± 0.016
GATAAAGATA	1.02 ± 0.043
TTGCCGGGGT	1.1 ± 0.16
CGGGTTCCAC	1.01 ± 0.05
GAAGCCGGAC	1.12 ± 0.035
TTAAGGGGTT	1.03 ± 0.044
CCGGGTGGTT	1.02 ± 0.08
GAGTGACTCG	1.01 ± 0.014
GGGTAAGATC	1.022 ± 0.0083
TACGAAATGT	1.041 ± 0.0098
TGGGATTTGA	0.993 ± 0.023
CTGTGATGG	1.0776 ± 0.00079
GGTATTAAGT	1 ± 0.011
TTCAAGGAGG	0.978 ± 0.016
CGGCTGACTG	1.05 ± 0.019
GTTATTACGA	1.005 ± 0.0041
TAAAGTAGAT	0.988 ± 0.027
AGGGTGCTCC	1.23 ± 0.33

Sequence	switch fluorescence ratio
TACGCTGCAG	1.05 ± 0.049
AGGTCTTTCG	1.002 ± 0.003
CATGTCACGG	1.06 ± 0.039
CGGGATCCAG	1.01 ± 0.0094
CCGAATGAGG	0.995 ± 0.032
GGGTTGGGAA	0.988 ± 0.023
TGGGAGTTTT	1.02 ± 0.047
ATTGCAAATC	1.027 ± 0.0094
GGGTCATGGG	0.989 ± 0.033
GATGTAATAG	1.57 ± 0.19
TTTTGTACAA	1.04 ± 0.059
AGTGACAACA	1.007 ± 0.0021
GGCAGCGGGG	0.991 ± 0.019
GGATATATGG	1 ± 0.025
GTTTAAGTTC	0.988 ± 0.017
AAAGGCCATG	1.02 ± 0.0045
CTGGACCTTC	1.66 ± 0.043
TGTTTTCTAG	0.99 ± 0.022
GATTCTTATG	1.03 ± 0.036
TTTTTAAAAT	1.08 ± 0.22
CGAGGTTGGG	1.002 ± 0.0028
CGTTTGTGAG	1 ± 0.0092
GTGTTTCCGG	1.01 ± 0.045

Sequence	switch fluorescence ratio
TATTTGCGCA	1.06 ± 0.099
AGAACCGTGT	0.989 ± 0.041
AGGTGGTGAC	0.979 ± 0.018
TTAGTTGAAT	0.985 ± 0.04
AGATATTAGA	1.017 ± 0.0048
GCGGATGTAG	1.01 ± 0.03
GGGCACGTTT	0.995 ± 0.011
TAAGTAATTC	1.08 ± 0.064
TCGGGTTTTT	1 ± 0.03
GATGAGTATA	1 ± 0.021
TCCATCTGCG	1.097 ± 0.007
GGGGTAGCTG	0.962 ± 0.012
TTTTTGTATC	0.968 ± 0.022
TTTTTTCCTC	1.1 ± 0.2
ACGTTCGTTG	0.9908 ± 0.0096
AGATGATCAG	0.982 ± 0.02
CCGGACGGAA	1.12 ± 0.071
TTTGGTGTTA	1 ± 0.026
CGCGACTGGT	0.994 ± 0.014
GAGTTCAGGT	1.01 ± 0.019
AATTAAAAGT	0.989 ± 0.017
GATAGGGTTT	1.06 ± 0.076
CAGGTCCAGT	0.993 ± 0.02

Sequence	switch fluorescence ratio
GGGATGGGGT	0.988 ± 0.029
ATCTTGGGTT	1.006 ± 0.0064
AGCGAGAGGG	0.974 ± 0.031
TTCAAATTTT	1.01 ± 0.015
GTCGGGAGGT	0.989 ± 0.015
TTAGCTTGTA	1.07 ± 0.088
AATATTATTA	1.019 ± 0.0041
TTTGTTATGC	1.03 ± 0.032
TGAAACTATT	1.01 ± 0.027
ATGGAAAGGG	0.989 ± 0.041
CGAAAGTATA	1.08 ± 0.075
AGGTGTGAGC	1.03 ± 0.012
TCTGTCTATA	1.03 ± 0.026
GTGGGGGTAG	0.99 ± 0.032
TGGTGGTTGC	0.96 ± 0.051
TTTGCGGTTT	1.02 ± 0.046
GTATAAGGGG	0.977 ± 0.026
TTGAAGCTGG	0.9746 ± 0.0088
GAAATGTGGT	0.997 ± 0.02
TGAGCACCGT	1 ± 0.017
GAATTAAATT	1.01 ± 0.018
GTAATCGATT	1.07 ± 0.022
CGGTCTGCGA	1.05 ± 0.013

Sequence	switch fluorescence ratio
TAGCCCTGCT	1.033 ± 0.0087
ATTGATCTCG	1.04 ± 0.083
AGTTTTGGGT	0.967 ± 0.02
ATTGCGATTC	1.159 ± 0.01
AAAAATGTCC	1.07 ± 0.03
GTCTTGGGTA	0.963 ± 0.024
CACATTTTCA	1.01 ± 0.027
ATTATGATTG	0.98 ± 0.028
GGGTTTCAGG	1.017 ± 0.0021
TTGGGAGGCT	1 ± 0.044
TGGGTAATCC	1.03 ± 0.025
TAAAGGTCAG	0.996 ± 0.018
ATGAGGGCAG	0.993 ± 0.018
AGTTTAGGGT	1.03 ± 0.054
GAATGCGGGC	0.99 ± 0.017
AGTGGTTTGT	0.949 ± 0.017
TTTTTCGACC	1.01 ± 0.035
CGAAATGTAA	0.992 ± 0.024
TTACGGGCAC	1.18 ± 0.012
CGCGGGGGCG	0.991 ± 0.025
AGCGAAATTT	1.04 ± 0.023
ATATGCGGGT	0.985 ± 0.032
TTGGGGTATC	1.01 ± 0.02

Sequence	switch fluorescence ratio
TGTTAGGGTG	1.04 ± 0.033
TGAACATTTG	1.03 ± 0.025
CTGGGAAGGC	1.13 ± 0.04
ATGCACTGGG	1.08 ± 0.05
GATCTATGTG	1.01 ± 0.042
TCGTAGAATA	1.01 ± 0.032
AAAAGTCAGT	0.988 ± 0.053
TTCTTTGTTG	0.984 ± 0.046
ATCTCTGGGT	1 ± 0.033
GCGTAGGGGG	0.95 ± 0.046
TATTAACCTT	1.6415 ± 0.00013
GGGTAACGGC	1.01 ± 0.089
ATGCTATGCG	1.008 ± 0.01
GTTGTTACAA	1.004 ± 0.0092
TTTTAATACC	1 ± 0.023
CGGCAGCCGG	1.01 ± 0.062
TTGGGGAGAT	0.989 ± 0.014
GCGAGGGGGT	0.979 ± 0.054
GATGTGAATT	1.02 ± 0.011
TTGTATTTA	1.01 ± 0.05
GGTCTTGAGG	1.01 ± 0.028
TGTTGGTGTC	0.987 ± 0.07
AGAAACAGGA	1.04 ± 0.04

Sequence	switch fluorescence ratio
TGGGCATAAA	1.006 ± 0.0012
GGACCAGGGT	1.04 ± 0.0071
GTTGGTGACG	1.048 ± 0.0055
AGGGATTGAA	0.9875 ± 0.0022
AGCATGGGAG	0.991 ± 0.034
AGATTGTTTA	0.981 ± 0.019
GCCGGTTTTG	1.01 ± 0.017
AAAAGGGCGG	1.01 ± 0.023
TTCTTTTAAT	0.98998 ± 0.0005
CATCATGTGT	0.9714 ± 0.0043
TTTGATATTC	0.971 ± 0.022
CAGGGTTCCG	1.17 ± 0.28
CGGTTTGTGT	0.998 ± 0.029
ACGTAGAAAT	1.35 ± 0.022
AAGAAGTGTA	1.006 ± 0.0083
TGGGGTCAAA	0.995 ± 0.036
GTAGCGCGTC	1.03 ± 0.026
AACCTTAGGA	1.05 ± 0.017
TAGGTGGGCT	1.011 ± 0.0064
